The data set deals with the molecule itself. In words: cryo-EM structure.

B1: Roseospirillum parvum LH1 αβ-polypeptide pair (complex)
chain 1: not shown
chain 2: MATTENVTSSTGLTEAEAKEFHAVYSQSAAGFLAVCAVAHVLAWMWRPFWPGAEGWVMDTAQNLTFLA
For the protein B1, the stoichiometry N – broadly, the number of molecules, sites or subunits per partner or assembly – is 16.

These data come from publication PMC11659472 (Communications Biology, 2024).
